For eight molecules, binding result and Kd results are on record in US12747297 (dated 2026).

What is called Kd is a measure of binding affinity in units of concentration.

Numbering of substitutions follows the chain as printed.

For assay [1], the target named is sIL-4Rα (human).
Assay [2] deals with sIL-4Rα (human). The assay can be described thus: BLI. On the technique in general: BLI is a label-free optical method that tracks binding on a fibre tip over time.

sIL-4Rα (human), sequence (chain, as listed by the source): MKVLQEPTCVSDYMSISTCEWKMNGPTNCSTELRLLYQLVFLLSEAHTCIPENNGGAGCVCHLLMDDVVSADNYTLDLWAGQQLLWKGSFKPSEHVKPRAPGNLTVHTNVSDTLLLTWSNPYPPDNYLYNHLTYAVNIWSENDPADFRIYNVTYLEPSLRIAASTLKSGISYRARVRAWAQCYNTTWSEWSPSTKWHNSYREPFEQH

B1: 5R65.39 (antibody, V domains shown)
VH: QVQLVQSGAEVKKPGSSVKVSCKASGYTFTSYWINWVRQAPGQGLEWIGHIYPNKNENYYNHKFKDKATLTVDKSTNTAYMELSSLRSEDTAVYYCTREFYGRSRYSAMDYWGQGTTLTVSS
VL: DIQMTQSPSTLSASVGDRVTITCKASQNVGTAVAWYQQKPGKAPKLLIYWASTRHTGVPDRFSGSGSGTDFTLTISSLQPDDFATYYCQQFGRYPYTFGSGTKVEVK
Consider B1, for which, in assay [1], the binding result was “no binding”.

B2: 5R65 (antibody, V domains shown)
VH: B1 VH with E99D, F100Y, R105Y, S107Y
VL: B1 VL
For the molecule B2, the binding result in assay [1] was “no binding”.

B3: 5R65.14 (antibody, V domains shown)
VH: B1 VH with F100H, S104P, R105Y, S107N
VL: B1 VL
For B3, the binding result in assay [1] is on record as “no binding”.

B4: 5R65.7 (antibody, V domains shown)
VH: B1 VH with S104Q, R105Y, S107Q
VL: B1 VL
With B4, in assay [1], the binding result is “no binding”.

B5: 5R65.18 (antibody, V domains shown)
VH: B1 VH with F100Y, S104T, R105Y
VL: B1 VL
B5: in assay [1], the binding result is on record as “no binding”.

B6: 5R65.10 (antibody, V domains shown)
VH: B1 VH with F100Y, R105Y, S107A
VL: B1 VL
As to B6, the binding result in assay [1] was “no binding”.

B7: 4R.N8 (antibody, V domains shown)
VH: EVQLLESGGGLVQPGGSLRLSCAASGFTFSRHAMAWVRQAPGKGLEWVSAITMSGRSIYYADSVKGRFTISRDNSKNTLYLQMNSLRAEDTAVYYCARVHRAFDYWGQGTLVTVSS
VL: QSVLTQPPSASGTPGQRVTISCSGSPLFPDSGSFNWYQQLPGTAPKLLIYADSHRPSGVPDRFSGSKSGTSASLAISGLRSEDEADYYCGTWDYSLSRYVLGGGTKLTVLG
Molecule B7 registered a Kd in assay [2] of 0.0802 nM.

B8: 4R.N2 (antibody, V domains shown)
VH: B7 VH with M53A, A61G
VL: B7 VL with R98A
Turning to B8, binding in assay [2] was put at a Kd of 0.108 nM.
